Test results taken from patent US20180155451A1 (published 2018).

T1: FcγRIIa H (human, UniProt P12318 34-217)
T1 construct: extracellular domain; also called FcgRIIa H type; 2aH; not shown: His tag at the C terminus
T1 sequence (looked up): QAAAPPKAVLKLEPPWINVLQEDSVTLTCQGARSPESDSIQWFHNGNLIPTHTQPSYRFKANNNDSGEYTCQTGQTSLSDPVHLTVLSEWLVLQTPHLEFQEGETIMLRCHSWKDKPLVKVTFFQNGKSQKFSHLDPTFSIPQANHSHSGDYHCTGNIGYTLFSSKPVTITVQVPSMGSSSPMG

B1: GpH7-B3 variant K326_06M/GpL16-k0 (antibody, human IgG1, kappa)
heavy: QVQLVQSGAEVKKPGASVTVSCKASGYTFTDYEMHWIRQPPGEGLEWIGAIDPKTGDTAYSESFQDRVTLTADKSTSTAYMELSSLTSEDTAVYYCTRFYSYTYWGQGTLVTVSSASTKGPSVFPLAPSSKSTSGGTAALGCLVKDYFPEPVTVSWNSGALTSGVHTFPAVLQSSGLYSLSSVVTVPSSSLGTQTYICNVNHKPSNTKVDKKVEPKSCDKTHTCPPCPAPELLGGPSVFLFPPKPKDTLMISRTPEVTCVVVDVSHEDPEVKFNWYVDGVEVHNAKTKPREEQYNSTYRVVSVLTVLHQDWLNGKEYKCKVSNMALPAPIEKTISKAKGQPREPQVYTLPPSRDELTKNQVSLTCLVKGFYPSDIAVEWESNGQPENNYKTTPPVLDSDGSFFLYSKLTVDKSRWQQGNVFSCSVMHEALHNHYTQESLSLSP
light: DIVMTQSPLSLPVTPGEPASISCQASESLVHSNRNTYLHWYLQKPGQSPQLLIYKVSNRFSGVPDRFSGSGSGTDFTLKISRVEAEDVGVYYCSQNTHVPPTFGQGTKVEIERTVAAPSVFIFPPSDEQLKSGTASVVCLLNNFYPREAKVQWKVDNALQSGNSQESVTEQDSKDSTYSLSSTLTLSKADYEKHKVYACEVTHQGLSSPVTKSFNRGEC
notes: also called Ho Ab K326_06M
B2: GpH7-A5/GpH7-B3 variant I332_02A/GpL16-k0 (antibody, human IgG1, kappa)
heavy 1: not shown
heavy 2: not shown
light: B1 light
notes: also called He Ab I332_02A
B3: GpH7-A5/GpH7-B3 variant G236_10E/GpL16-k0 (antibody, human IgG1, kappa)
heavy 1: not shown
heavy 2: not shown
light: B1 light
notes: also called He Ab G236_10E
B4: GpH7-B3 variant T335_19Q/GpL16-k0 (antibody, human IgG1, kappa)
heavy: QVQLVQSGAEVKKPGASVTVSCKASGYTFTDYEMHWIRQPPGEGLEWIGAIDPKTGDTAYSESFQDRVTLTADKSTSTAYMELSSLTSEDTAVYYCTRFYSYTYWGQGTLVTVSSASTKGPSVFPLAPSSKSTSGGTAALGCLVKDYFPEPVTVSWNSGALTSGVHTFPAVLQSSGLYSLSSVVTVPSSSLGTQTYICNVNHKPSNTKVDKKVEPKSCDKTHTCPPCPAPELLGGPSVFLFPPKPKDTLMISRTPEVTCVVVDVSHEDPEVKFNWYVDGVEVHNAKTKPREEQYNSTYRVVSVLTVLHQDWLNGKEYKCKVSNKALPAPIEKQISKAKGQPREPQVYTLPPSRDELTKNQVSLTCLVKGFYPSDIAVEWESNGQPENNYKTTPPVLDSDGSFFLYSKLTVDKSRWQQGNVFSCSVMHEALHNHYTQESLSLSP
light: B1 light
notes: also called Ho Ab T335_19Q
B5: GpH7-B3 variant S337_14T/GpL16-k0 (antibody, human IgG1, kappa)
heavy: not shown
light: B1 light
notes: also called Ho Ab S337_14T
B6: GpH7-B3 variant S324_02A/GpL16-k0 (antibody, human IgG1, kappa)
heavy: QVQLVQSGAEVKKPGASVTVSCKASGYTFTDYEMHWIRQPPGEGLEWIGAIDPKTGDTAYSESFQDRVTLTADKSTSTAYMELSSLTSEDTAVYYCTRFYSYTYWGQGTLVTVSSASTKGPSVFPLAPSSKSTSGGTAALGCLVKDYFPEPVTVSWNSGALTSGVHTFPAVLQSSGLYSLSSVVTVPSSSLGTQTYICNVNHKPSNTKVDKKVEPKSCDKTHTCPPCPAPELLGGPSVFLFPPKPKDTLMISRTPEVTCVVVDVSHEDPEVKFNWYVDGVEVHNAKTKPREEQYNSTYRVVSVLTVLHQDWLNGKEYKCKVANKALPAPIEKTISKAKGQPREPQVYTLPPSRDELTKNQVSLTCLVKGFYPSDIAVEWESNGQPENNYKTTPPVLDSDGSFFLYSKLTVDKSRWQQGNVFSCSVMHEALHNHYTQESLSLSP
light: B1 light
notes: also called Ho Ab S324_02A
B7: GpH7-A5/GpH7-B3 variant I332_13S/GpL16-k0 (antibody, human IgG1, kappa)
heavy 1: not shown
heavy 2: not shown
light: B1 light
notes: also called He Ab I332_13S
B8: GpH7-A5/GpH7-B3 variant H268_13S/GpL16-k0 (antibody, human IgG1, kappa)
heavy 1: not shown
heavy 2: not shown
light: B1 light
notes: also called He Ab H268_13S
B9: GpH7-B3 variant T335_16H/GpL16-k0 (antibody, human IgG1, kappa)
heavy: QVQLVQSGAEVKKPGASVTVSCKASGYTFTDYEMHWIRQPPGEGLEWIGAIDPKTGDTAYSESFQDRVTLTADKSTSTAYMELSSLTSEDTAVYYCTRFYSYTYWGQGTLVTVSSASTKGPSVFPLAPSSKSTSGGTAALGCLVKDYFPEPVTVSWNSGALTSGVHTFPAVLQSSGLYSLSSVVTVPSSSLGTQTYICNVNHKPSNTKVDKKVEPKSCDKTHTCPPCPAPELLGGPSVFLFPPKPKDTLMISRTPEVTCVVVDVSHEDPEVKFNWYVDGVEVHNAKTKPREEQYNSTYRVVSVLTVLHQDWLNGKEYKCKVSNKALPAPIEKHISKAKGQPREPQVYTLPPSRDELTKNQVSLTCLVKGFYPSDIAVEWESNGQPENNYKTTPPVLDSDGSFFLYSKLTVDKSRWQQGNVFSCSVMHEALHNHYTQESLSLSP
light: B1 light
notes: also called Ho Ab T335_16H
B10: GpH7-B3 variant L328_14T/GpL16-k0 (antibody, human IgG1, kappa)
heavy: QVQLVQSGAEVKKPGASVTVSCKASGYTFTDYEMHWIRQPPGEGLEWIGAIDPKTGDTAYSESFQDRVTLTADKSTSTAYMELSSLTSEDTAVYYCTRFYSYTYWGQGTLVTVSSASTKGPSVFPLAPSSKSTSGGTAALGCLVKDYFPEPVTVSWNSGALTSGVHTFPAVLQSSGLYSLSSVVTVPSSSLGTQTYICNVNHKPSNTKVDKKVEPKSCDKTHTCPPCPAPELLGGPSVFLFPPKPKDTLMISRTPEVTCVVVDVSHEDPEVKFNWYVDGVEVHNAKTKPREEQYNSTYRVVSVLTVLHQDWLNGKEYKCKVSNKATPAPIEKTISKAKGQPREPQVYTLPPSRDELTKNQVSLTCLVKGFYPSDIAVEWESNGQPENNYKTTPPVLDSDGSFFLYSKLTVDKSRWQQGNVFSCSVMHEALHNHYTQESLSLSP
light: B1 light
notes: also called Ho Ab L328_14T
B11: GpH7-A5/GpH7-B3 variant I332_03V/GpL16-k0 (antibody, human IgG1, kappa)
heavy 1: not shown
heavy 2: not shown
light: B1 light
notes: also called He Ab I332_03V
B12: GpH7-A5/GpH7-B3 variant I332_18N/GpL16-k0 (antibody, human IgG1, kappa)
heavy 1: not shown
heavy 2: not shown
light: B1 light
notes: also called He Ab I332_18N
B13: GpH7-B3 variant K326_10E/GpL16-k0 (antibody, human IgG1, kappa)
heavy: not shown
light: B1 light
notes: also called Ho Ab K326_10E
B14: GpH7-B3 variant T335_07I/GpL16-k0 (antibody, human IgG1, kappa)
heavy: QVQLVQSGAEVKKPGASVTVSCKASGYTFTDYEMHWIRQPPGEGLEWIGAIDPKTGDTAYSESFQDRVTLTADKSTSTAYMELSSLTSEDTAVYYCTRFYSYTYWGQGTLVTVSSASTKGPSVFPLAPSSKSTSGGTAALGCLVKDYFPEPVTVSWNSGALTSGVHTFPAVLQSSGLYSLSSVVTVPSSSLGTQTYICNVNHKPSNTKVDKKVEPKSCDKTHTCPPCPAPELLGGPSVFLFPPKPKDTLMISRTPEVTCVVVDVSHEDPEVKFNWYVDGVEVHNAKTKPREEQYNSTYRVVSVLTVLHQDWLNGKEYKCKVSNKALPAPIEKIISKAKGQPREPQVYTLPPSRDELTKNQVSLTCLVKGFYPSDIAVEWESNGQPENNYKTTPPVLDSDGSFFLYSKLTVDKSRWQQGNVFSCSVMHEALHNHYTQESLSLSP
light: B1 light
notes: also called Ho Ab T335_07I
B15: GpH7-B3 variant S324_10E/GpL16-k0 (antibody, human IgG1, kappa)
heavy: not shown
light: B1 light
notes: also called Ho Ab S324_10E
B16: GpH7-B3 variant Q295_07I/GpL16-k0 (antibody, human IgG1, kappa)
heavy: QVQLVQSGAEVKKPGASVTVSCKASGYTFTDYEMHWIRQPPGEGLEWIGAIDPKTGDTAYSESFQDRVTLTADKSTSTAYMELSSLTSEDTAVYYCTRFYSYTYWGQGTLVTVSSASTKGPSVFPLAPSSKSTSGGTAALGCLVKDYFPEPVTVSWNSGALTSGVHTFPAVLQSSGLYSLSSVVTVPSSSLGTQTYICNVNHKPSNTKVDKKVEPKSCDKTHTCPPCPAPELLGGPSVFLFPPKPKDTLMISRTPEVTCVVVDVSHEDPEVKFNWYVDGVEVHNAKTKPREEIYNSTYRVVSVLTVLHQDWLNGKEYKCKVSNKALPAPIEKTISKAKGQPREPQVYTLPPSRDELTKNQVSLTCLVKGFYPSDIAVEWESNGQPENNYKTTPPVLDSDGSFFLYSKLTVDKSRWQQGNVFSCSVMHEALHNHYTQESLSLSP
light: B1 light
notes: also called Ho Ab Q295_07I
B17: GpH7-A5/GpH7-B3 variant A330_12R/GpL16-k0 (antibody, human IgG1, kappa)
heavy 1: not shown
heavy 2: not shown
light: B1 light
notes: also called He Ab A330_12R
B18: GpH7-B3 variant S337_10E/GpL16-k0 (antibody, human IgG1, kappa)
heavy: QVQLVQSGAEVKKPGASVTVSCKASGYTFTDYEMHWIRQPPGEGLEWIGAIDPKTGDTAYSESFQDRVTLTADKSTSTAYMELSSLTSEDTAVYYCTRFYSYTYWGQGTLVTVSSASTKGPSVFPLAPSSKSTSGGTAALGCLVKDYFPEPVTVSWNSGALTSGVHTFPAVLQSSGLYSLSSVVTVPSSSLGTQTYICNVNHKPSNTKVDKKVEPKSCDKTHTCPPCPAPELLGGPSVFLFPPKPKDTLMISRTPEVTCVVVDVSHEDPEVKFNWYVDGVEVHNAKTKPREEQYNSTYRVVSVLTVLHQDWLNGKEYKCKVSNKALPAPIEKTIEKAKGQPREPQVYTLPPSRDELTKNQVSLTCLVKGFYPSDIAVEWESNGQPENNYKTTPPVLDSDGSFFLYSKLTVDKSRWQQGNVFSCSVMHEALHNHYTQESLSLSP
light: B1 light
notes: also called Ho Ab S337_10E
B19: GpH7-B3 variant S324_20W/GpL16-k0 (antibody, human IgG1, kappa)
heavy: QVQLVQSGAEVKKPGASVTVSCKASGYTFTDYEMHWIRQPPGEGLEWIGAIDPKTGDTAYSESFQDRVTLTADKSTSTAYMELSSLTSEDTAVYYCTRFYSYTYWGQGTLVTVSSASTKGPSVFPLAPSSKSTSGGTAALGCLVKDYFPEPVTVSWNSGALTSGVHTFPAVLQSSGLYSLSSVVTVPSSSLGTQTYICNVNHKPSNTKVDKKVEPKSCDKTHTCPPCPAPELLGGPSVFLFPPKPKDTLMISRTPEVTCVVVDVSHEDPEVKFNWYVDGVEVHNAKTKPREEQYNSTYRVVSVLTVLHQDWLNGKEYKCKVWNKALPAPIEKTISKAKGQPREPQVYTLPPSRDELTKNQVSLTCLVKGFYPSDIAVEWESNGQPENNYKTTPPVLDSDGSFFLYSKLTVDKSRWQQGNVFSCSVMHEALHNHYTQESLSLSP
light: B1 light
notes: also called Ho Ab S324_20W
B20: GpH7-B3 variant S337_16H/GpL16-k0 (antibody, human IgG1, kappa)
heavy: not shown
light: B1 light
notes: also called Ho Ab S337_16H
B21: GpH7-A5/GpH7-B3 variant I332_10E/GpL16-k0 (antibody, human IgG1, kappa)
heavy 1: not shown
heavy 2: not shown
light: B1 light
notes: also called He Ab I332_10E
B22: GpH7-B3 variant K334_16H/GpL16-k0 (antibody, human IgG1, kappa)
heavy: not shown
light: B1 light
notes: also called Ho Ab K334_16H
B23: GpH7-A5/GpH7-B3 variant I332_06M/GpL16-k0 (antibody, human IgG1, kappa)
heavy 1: not shown
heavy 2: not shown
light: B1 light
notes: also called He Ab I332_06M
B24: GpH7-B3 variant T335_13S/GpL16-k0 (antibody, human IgG1, kappa)
heavy: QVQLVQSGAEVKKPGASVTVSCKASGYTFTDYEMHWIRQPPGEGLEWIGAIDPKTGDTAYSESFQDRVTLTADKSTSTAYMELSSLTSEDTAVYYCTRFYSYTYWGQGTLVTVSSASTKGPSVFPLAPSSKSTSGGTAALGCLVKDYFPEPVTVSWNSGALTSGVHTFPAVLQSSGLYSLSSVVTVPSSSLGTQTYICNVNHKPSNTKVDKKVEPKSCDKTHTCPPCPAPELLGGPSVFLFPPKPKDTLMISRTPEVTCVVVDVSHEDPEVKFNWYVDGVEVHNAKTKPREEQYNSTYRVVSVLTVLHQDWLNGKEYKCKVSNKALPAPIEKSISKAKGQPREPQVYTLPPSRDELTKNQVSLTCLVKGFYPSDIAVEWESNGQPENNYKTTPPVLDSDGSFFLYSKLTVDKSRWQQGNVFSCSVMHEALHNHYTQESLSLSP
light: B1 light
notes: also called Ho Ab T335_13S
B25: GpH7-B3 variant S239_09D/GpL16-k0 (antibody, human IgG1, kappa)
heavy: not shown
light: B1 light
notes: also called Ho Ab S239_09D
B26: GpH7-A5/GpH7-B3 variant I332_15Y/GpL16-k0 (antibody, human IgG1, kappa)
heavy 1: not shown
heavy 2: not shown
light: B1 light
notes: also called He Ab I332_15Y
B27: GpH7-A5/GpH7-B3 variant I332_16H/GpL16-k0 (antibody, human IgG1, kappa)
heavy 1: not shown
heavy 2: not shown
light: B1 light
notes: also called He Ab I332_16H
B28: GpH7-B3 variant T335_15Y/GpL16-k0 (antibody, human IgG1, kappa)
heavy: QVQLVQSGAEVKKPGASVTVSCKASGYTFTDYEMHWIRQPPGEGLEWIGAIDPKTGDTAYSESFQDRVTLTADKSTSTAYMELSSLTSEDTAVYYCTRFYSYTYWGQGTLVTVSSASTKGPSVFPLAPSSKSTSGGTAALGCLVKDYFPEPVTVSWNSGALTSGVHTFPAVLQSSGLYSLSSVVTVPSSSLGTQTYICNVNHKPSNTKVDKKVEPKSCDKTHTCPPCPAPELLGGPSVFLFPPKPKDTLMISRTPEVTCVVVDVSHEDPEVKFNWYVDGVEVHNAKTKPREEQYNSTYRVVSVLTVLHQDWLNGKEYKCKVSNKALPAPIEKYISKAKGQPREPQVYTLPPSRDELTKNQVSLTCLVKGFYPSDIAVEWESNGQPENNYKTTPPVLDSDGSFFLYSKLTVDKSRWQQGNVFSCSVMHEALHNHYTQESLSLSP
light: B1 light
notes: also called Ho Ab T335_15Y
B29: GpH7-A5/GpH7-B3 variant H268_10E/GpL16-k0 (antibody, human IgG1, kappa)
heavy 1: not shown
heavy 2: not shown
light: B1 light
notes: also called He Ab H268_10E

target: T1, FcγRIIa H; experiment: SPR Biacore, relative binding

Row | Ho/Con_2aH | He/Con_2aH | Binder
1 | 101 % of GpH7-B3/GpL16-k0 (=100) |  | B1
2 |  | 111 % of GpH7-A5/GpH7-B3/GpL16-k0 (=100) | B2
3 |  | 111 % of GpH7-A5/GpH7-B3/GpL16-k0 (=100) | B3
4 | 103 % of GpH7-B3/GpL16-k0 (=100) |  | B4
5 | 105 % of GpH7-B3/GpL16-k0 (=100) |  | B5
6 | 102 % of GpH7-B3/GpL16-k0 (=100) |  | B6
7 |  | 110 % of GpH7-A5/GpH7-B3/GpL16-k0 (=100) | B7
8 |  | 112 % of GpH7-A5/GpH7-B3/GpL16-k0 (=100) | B8
9 | 100 % of GpH7-B3/GpL16-k0 (=100) |  | B9
10 | 110 % of GpH7-B3/GpL16-k0 (=100) |  | B10
11 |  | 105 % of GpH7-A5/GpH7-B3/GpL16-k0 (=100) | B11
12 |  | 110 % of GpH7-A5/GpH7-B3/GpL16-k0 (=100) | B12
13 | 101 % of GpH7-B3/GpL16-k0 (=100) |  | B13
14 | 105 % of GpH7-B3/GpL16-k0 (=100) |  | B14
15 | 104 % of GpH7-B3/GpL16-k0 (=100) |  | B15
16 | 108 % of GpH7-B3/GpL16-k0 (=100) |  | B16
17 |  | 108 % of GpH7-A5/GpH7-B3/GpL16-k0 (=100) | B17
18 | 101 % of GpH7-B3/GpL16-k0 (=100) |  | B18
19 | 108 % of GpH7-B3/GpL16-k0 (=100) |  | B19
20 | 102 % of GpH7-B3/GpL16-k0 (=100) |  | B20
21 |  | 108 % of GpH7-A5/GpH7-B3/GpL16-k0 (=100) | B21
22 | 101 % of GpH7-B3/GpL16-k0 (=100) |  | B22
23 |  | 110 % of GpH7-A5/GpH7-B3/GpL16-k0 (=100) | B23
24 | 101 % of GpH7-B3/GpL16-k0 (=100) |  | B24
25 | 112 % of GpH7-B3/GpL16-k0 (=100) |  | B25
26 |  | 115 % of GpH7-A5/GpH7-B3/GpL16-k0 (=100) | B26
27 |  | 109 % of GpH7-A5/GpH7-B3/GpL16-k0 (=100) | B27
28 | 102 % of GpH7-B3/GpL16-k0 (=100) |  | B28
29 |  | 124 % of GpH7-A5/GpH7-B3/GpL16-k0 (=100) | B29
